# Substitutions are numbered along the chain they refer to.
# T1: HLA-DP DPB1*0401 (human)
# T1 chain 1: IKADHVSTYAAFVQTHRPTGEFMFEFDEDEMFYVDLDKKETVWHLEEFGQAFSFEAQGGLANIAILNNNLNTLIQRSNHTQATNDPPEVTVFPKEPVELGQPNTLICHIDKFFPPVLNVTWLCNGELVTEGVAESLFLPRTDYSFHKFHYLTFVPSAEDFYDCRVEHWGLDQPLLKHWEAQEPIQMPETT
# T1 chain 2: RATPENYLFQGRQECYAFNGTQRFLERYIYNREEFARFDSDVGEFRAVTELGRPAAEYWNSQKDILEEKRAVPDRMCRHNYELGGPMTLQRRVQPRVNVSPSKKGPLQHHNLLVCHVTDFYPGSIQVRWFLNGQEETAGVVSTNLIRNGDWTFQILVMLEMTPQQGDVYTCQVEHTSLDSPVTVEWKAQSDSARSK
# T2: HLA-DP DPB1*0201 (human)
# T2 chain 1: T1 chain 1
# T2 chain 2: T1 chain 2 with A36V, A55D, A56E, K69E
# What was measured:
# [1] = biological target: HLA-DQ molecule DQB1*0503 (human); experiment: inhibition of radiolabeled peptide binding to purified HLA-DQ
# [2] = biological target: HLA-DQ molecule DQB1*0202 (human); experiment: as above
# [3] = biological target: HLA DQ molecule DQB1*0503 (human); experiment: inhibition of radiolabeled peptide binding to purified HLA class II
# [4] = biological target: HLA DQ molecule DQB1*0502 (human); experiment: as above
# HLA-DP DPB1*0401 = biological target: T1, HLA-DP DPB1*0401; experiment: inhibition of radiolabeled peptide binding to purified HLA-DP
# [5] = biological target: HLA-DQ molecule DQB1*0502 (human); experiment: inhibition of radiolabeled peptide binding to purified HLA-DQ
# HLA-DP DPB1*0201 = biological target: T2, HLA-DP DPB1*0201; experiment: inhibition of radiolabeled peptide binding to purified HLA-DP
# [6] = biological target: HLA-DQ molecule DQB1*0602 (human); experiment: inhibition of radiolabeled peptide binding to purified HLA-DQ
# [7] = biological target: HLA DQ molecule DQB1*0503 (human); experiment: inhibition of radiolabeled peptide binding to purified HLA class II; remark: listed apart in the source
# [8] = biological target: HLA DQ molecule DQB1*0202 (human); experiment: as above
# [9] = biological target: HLA-DQ molecule DQB1*0503 (human); experiment: inhibition of radiolabeled peptide binding to purified HLA
# [10] = biological target: HLA-DQ molecule DQB1*0202 (human); experiment: as above
# [11] = biological target: HLA-DQ molecule DQB1*0602 (human); experiment: as above
# [12] = biological target: HLA-DQ molecule DQB1*0502 (human); experiment: as above
# [13] = biological target: HLA-DP molecule DPB1*2001 (human); experiment: inhibition of radiolabeled peptide binding to purified HLA-DP
binder,measurement,setting,value
KAFVLDSDNLIPKVV [Que a 1 (21-35) peptide KAFVLDSDNLIPKVV],IC50,[1],2.64 µM
same,IC50,[2],194 nM
"IFYDVFFAVANGNEL [Fel d 1 2 (26-40) peptide IFYDVFFAVANGNEL, Peptide ID 3324.1052]",IC50,[3],8130 nM
same,IC50,[4],6650 nM
FDAFVAYHIGARIVS [Der p 4 (482-496) peptide 3324.0971],IC50,HLA-DP DPB1*0401,71 nM
"QIDAFIANAGATADS [Cla h 8 (101-115) peptide QIDAFIANAGATADS, Peptide ID 3324.0601]",IC50,[3],84 nM
same,IC50,[4],819 nM
DIYNYMEPYVSKVDP [Dac g 4 (1-15) peptide DIYNYMEPYVSKVDP],IC50,[5],2.02 µM
PSVIPAARLFKAFIL [Aln g 1 (11-25) peptide 3324.0004],IC50,HLA-DP DPB1*0201,63 nM
same,IC50,HLA-DP DPB1*0401,7280 nM
IVYIKPAKNIYSFNE [Bet v 6 (211-225) peptide IVYIKPAKNIYSFNE],IC50,[1],0.65 µM
same,IC50,[5],5.83 µM
same,IC50,[6],19 nM
FSGVAATESAYLAYR [Der f 1 (136-150) peptide 3324.0666],IC50,HLA-DP DPB1*0401,1440 nM
AFMLAWNYGVPRVMS [Der p 4 (321-335) peptide 3324.0977],IC50,HLA-DP DPB1*0201,185 nM
same,IC50,HLA-DP DPB1*0401,5160 nM
"GCIHMARSLANEWRD [Cla h 8 (181-195) peptide GCIHMARSLANEWRD, Peptide ID 3324.0602]",IC50,[3],649 nM
same,IC50,[4],673 nM
"DAFIAALTEALRVIA [Pha a 5 peptide, position 121, DAFIAALTEALRVIA (Peptide ID 3324.1432)]",IC50,[7],50000 nM
same,IC50,[8],2040 nM
YQIAFSRGNRAFIAI [Der p 4 peptide 3324.0980 (position 411)],IC50,[9],1410 nM
same,IC50,[10],8.72 µM
EIYNMVKFRMIAGQE [Der p 4 (386-400) peptide 3324.0978],IC50,HLA-DP DPB1*0201,5.3 nM
same,IC50,HLA-DP DPB1*0401,122 nM
"NVFDEVIPTAFTVGK [Lol p 3 peptide, position 76, NVFDEVIPTAFTVGK (Peptide ID 3324.1141), listing 1 of 2 here]",IC50,[7],2900 nM
same,IC50,[8],1700 nM
PSVIPAARLFKAFIL [Aln g 1 peptide 3324.0004 (position 11)],IC50,[9],1450 nM
same,IC50,[10],11.2 µM
RGIEYIQHNGVVQES [Der p 1 peptide 3324.0831 (position 176)],IC50,[11],859 nM
IFSQNMNIKLQMPLY [Cup a 1 (71-85) peptide IFSQNMNIKLQMPLY],IC50,[1],4.9 µM
same,IC50,[6],262 nM
LEKISNEIKIVATPD [Bet v 1 (96-110) peptide 3324.0353],IC50,HLA-DP DPB1*0201,7570 nM
same,IC50,HLA-DP DPB1*0401,6820 nM
ASVIPPARLFKAFVL [Que a 1 (11-25) peptide ASVIPPARLFKAFVL],IC50,[1],1.95 µM
RTLNKIVYIKPAKNI [Bet v 6 peptide 3324.0387 (position 206)],IC50,[11],58 nM
same,IC50,[9],3460 nM
same,IC50,[10],12.5 µM
RTLNKIVYIKPAKNI [Bet v 6 (206-220) peptide 3324.0387],IC50,HLA-DP DPB1*0401,41 nM
NLALSIKYNKEGDSM [Dac g 2 (16-30) peptide NLALSIKYNKEGDSM],IC50,[1],8.96 µM
same,IC50,[6],258 nM
SGVAATESAYLAYRN [Der p 1 peptide 3324.0829 (position 136)],IC50,[10],0.871 µM
IIFSQNMNIKLKMPL [Cup s 1 (91-105) peptide IIFSQNMNIKLKMPL],IC50,[1],36 µM
same,IC50,[6],1860 nM
YVGHDEFDAFVAYHI [Der p 4 peptide 3324.0975 (position 476)],IC50,[10],8.14 µM
same,IC50,[12],5.04 µM
"KELKGAYVYFASDAS [Cla h 8 (236-250) peptide KELKGAYVYFASDAS, Peptide ID 3324.0598]",IC50,[3],518 nM
same,IC50,[4],4670 nM
AFMLAWNYGVPRVMS [Der p 4 peptide 3324.0977 (position 321)],IC50,[11],762 nM
same,IC50,[9],339 nM
same,IC50,[10],8.36 µM
same,IC50,[12],0.992 µM
KALWIIFSQNMNIKL [Cup a 1 (66-80) peptide KALWIIFSQNMNIKL],IC50,[1],29 µM
same,IC50,[5],50 µM
GGSILKISNKFHTKG [Aln g 1 peptide 3324.0007 (position 111)],IC50,[10],50 µM
GGSILKISNKYHTKG [Bet v 1 peptide 3324.0352 (position 111)],IC50,[11],6060 nM
"AFLLLGLAGNSSPSA [Cla h 5 (6-20) peptide, Peptide ID 3324.0576]",IC50,[4],718 nM
GGSILKISNKFHTKG [Aln g 1 (111-125) peptide 3324.0007],IC50,HLA-DP DPB1*0201,843 nM
same,IC50,HLA-DP DPB1*0401,18500 nM
"QKLMEDINVGFKAAV [Poa p 5 peptide, position 51, QKLMEDINVGFKAAV (Peptide ID 3324.1580)]",IC50,[13],2.18 µM
EHRWREIYNMVKFRM [Der p 4 peptide 3324.0986 (position 381)],IC50,[9],4240 nM
same,IC50,[12],8.94 µM
EHRWREIYNMVKFRM [Der p 4 (381-395) peptide 3324.0986],IC50,HLA-DP DPB1*0201,109 nM
same,IC50,HLA-DP DPB1*0401,549 nM
SCWAFSGVAATESAY [Der p 1 peptide 3324.0832 (position 131)],IC50,[12],4.4 µM
IVLNHMTGAQSGKGT [Der p 4 peptide 3324.0987 (position 96)],IC50,[11],65 nM
"SDAKTLVLNIKYTRP [Lol p 3 peptide, position 11, SDAKTLVLNIKYTRP (Peptide ID 3324.1142)]",IC50,[13],24 µM
FDAFVAYHIGARIVS [Der p 4 peptide 3324.0971 (position 482)],IC50,[11],54 nM
same,IC50,[9],1080 nM
same,IC50,[10],4.75 µM
"GGRLAFQEFMIVPSG [Cla h 6 (161-175) peptide GGRLAFQEFMIVPSG, Peptide ID 3324.0588]",IC50,[3],2440 nM
same,IC50,[4],4950 nM
LEKISNEIKIVATPD [Bet v 1 peptide 3324.0353 (position 96)],IC50,[11],19 nM
same,IC50,[9],8890 nM
same,IC50,[10],8.67 µM
same,IC50,[12],5.09 µM
GGSILKISNKYHTKG [Bet v 1 (111-125) peptide 3324.0352],IC50,HLA-DP DPB1*0401,10500 nM
"LIEKINAGFKAAVAA [Lol p 5 1 peptide, position 71, LIEKINAGFKAAVAA (Peptide ID 3324.1175)]",IC50,[7],147 nM
same,IC50,[8],50000 nM
IEFRFYKEITNVFRG [Der p 4 peptide 3324.0976 (position 251)],IC50,[11],318 nM
same,IC50,[9],4370 nM
same,IC50,[10],6.2 µM
same,IC50,[12],5.52 µM
"NVFDEVIPTAFTVGK [Lol p 3 peptide, position 76, NVFDEVIPTAFTVGK (Peptide ID 3324.1141), listing 2 of 2 here]",IC50,[13],13.2 µM
SRGNRAFIAINLQKN [Der p 4 (416-430) peptide 3324.0974],IC50,HLA-DP DPB1*0201,7.2 nM
"GTGSLVITASMSGHI [Cla h 8 (151-165) peptide GTGSLVITASMSGHI, Peptide ID 3324.0603]",IC50,[3],13800 nM
IEFRFYKEITNVFRG [Der p 4 (251-265) peptide 3324.0976],IC50,HLA-DP DPB1*0201,35 nM
YVGHDEFDAFVAYHI [Der p 4 (476-490) peptide 3324.0975],IC50,HLA-DP DPB1*0201,177 nM
same,IC50,HLA-DP DPB1*0401,273 nM
REALAQTHSAIAVII [Der p 1 peptide 3324.0840 (position 226)],IC50,[9],32100 nM
same,IC50,[10],0.629 µM
SRGNRAFIAINLQKN [Der p 4 peptide 3324.0974 (position 416)],IC50,[11],98 nM
same,IC50,[9],84 nM
same,IC50,[10],7.39 µM
same,IC50,[12],0.546 µM
